Reference: doi:10.1101/2024.02.22.581535 (2024)

Key:
Test in all cases: SPR
FIKK13_1 = target: FIKK13_1
FIKK13_4_S7A_Y10A = target: FIKK13_4_S7A_Y10A
FIKK13_4_S7A = target: FIKK13_4_S7A
FIKK13_4_Y10A = target: FIKK13_4_Y10A
FIKK13_6 = target: FIKK13_6

B1: Bio-His-FIKK13 (enzyme)
chain: MKKKENTQKLLNFVYYKIYLTFIVGLLYIFLLNILINHGGSKNDVRFTNIRCVRIFSENIKNINEISKKIYLYNIKNEKDDIICRDSLDNINEINNKINYTSVKGEDIIILKEGKYKNGCSDINFLDRKDVNKNDDQSFRNYHKTNNNKDENVNMKSYVYNWELGQKSLIKMLDYADNFYFNGVKYSDWKLTSMRRFNLNNNVLKDHKTYKSIINSKKGNDMKKVKLFIKKIPIDIWVEQFNLMKKYEGEYLIDKENYVMEAVSLAFLNEYYPGITPKFYKILYESDKNNMNEKNCKKYKFQDLNELNDILTKKLENNINGNIVLISEFFGENVFDYIKRKKNTLFVVSDISNEDKKKILYNSLNLLMRLHNAGLTHLDLSPDNMLISPKNYEMRLCDLSQSTPIYTNKLRHKEKLNSIKPFESFEPCIGKIEYIPPECWKIVWKYKMNNIKNPIEYLKNISNQEERKKYYYDVSCADKYMLGIFFIWMWNNGFIWKCSDPIQDKIFEIFMKSNMDLNKFIMTKSWPHELNNLINKLLHMEHRKTVKLSDLSRHPWWSSKN
Q: What does the source list for B1?
A: Kd (FIKK13_1): > 10 µM; Kd (FIKK13_4_S7A_Y10A): > 10 µM; Kd (FIKK13_4_S7A): 3.4 µM; Kd (FIKK13_4_Y10A): > 10 µM; Kd (FIKK13_6): > 10 µM
